Results on five molecules are retold here after publication PMC9160049, “Cryo-EM structures of Gid12-bound GID E3 reveal steric blockade as a mechanism inhibiting substrate ubiquitylation” (Nature Communications, 2022).

Series [1] has as its target Gid12-Chelator-GID^SR4 (Gid12-Gid7-Gid4-Gid5-Gid1-Gid8-Gid2-Gid9), Twin-Strep at the C-terminus of Gid8 (S. cerevisiae) (UniProt Q12027). In words: cryo-EM structure; maps of Gid12-GID^SR4 (9.8 Å), Gid12-Chelator-GID^SR4 (19.4 Å) and Gid12-Cage-GID^SR4 (20.6 Å), complexes co-expressed in Hi5 cells and purified; docked with Gid12-SRS and prior structures.
Series [2] deals with PHSVTP-Fbp1 (Fbp1 with its N-terminus exchanged to Mdh2 degron) (S. cerevisiae) (UniProt P09201). In words: cryo-EM structure; purified Cage-GID^SR4 at 1 mg/ml with fivefold molar excess of purified PHSVTP-Fbp1 added directly before grid preparation; 12.2 Å; 25 mM HEPES pH 7.5, 50 mM NaCl, 5 mM DTT.
Series [3] deals with Chelator-GID^SR4 (Gid7-Gid4-Gid5-Gid1-Gid8-Gid2-Gid9), Twin-Strep at the C-terminus of Gid8 (S. cerevisiae) (UniProt P53076). In words: cryo-EM structure; Cage-GID^SR4 prepared without Gid12, co-expressed in Hi5 cells and purified; 19.8 Å map fitted with three Chelator-GID^SR4 models.
For series [4], the target named is T1, 3×HA-Gid4 (endogenously N-terminally HA-tagged Gid4) (S. cerevisiae (endogenous in BY4741), UniProt P38263 1-362).
T1 construct: Gid4 (Vid24), S. cerevisiae, tagged at the endogenous locus; source: endogenous locus, BY4741 GID12-9×cMYC::kanMX4, 3×HA-GID4 yeast, in lysate; not shown: 3×HA, N-terminal, kept
T1 sequence (looked up): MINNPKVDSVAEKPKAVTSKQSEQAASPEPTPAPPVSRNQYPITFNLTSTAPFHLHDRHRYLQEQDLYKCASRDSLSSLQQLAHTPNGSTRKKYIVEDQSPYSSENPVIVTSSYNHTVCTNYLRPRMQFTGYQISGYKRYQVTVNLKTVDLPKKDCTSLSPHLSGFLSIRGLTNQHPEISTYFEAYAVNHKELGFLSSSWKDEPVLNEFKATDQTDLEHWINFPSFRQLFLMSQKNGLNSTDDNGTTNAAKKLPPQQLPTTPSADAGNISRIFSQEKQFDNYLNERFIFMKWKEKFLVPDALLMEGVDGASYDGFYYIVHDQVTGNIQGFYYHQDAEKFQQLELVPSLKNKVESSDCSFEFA
In words: affinity purification with mass spectrometry; 3×HA-Gid4 on anti-HA resin, eluted with HA peptide, from BY4741 GID12-9×cMYC lysate; glycolytic conditions, ethanol starvation for 16 h or carbon recovery; iBAQ quantification. The note with it: partners not purified.

Series [5] concerns the molecule itself. In words: cryo-EM structure; purified Chelator-GID^SR4 at 0.6 mg/ml with threefold molar excess of purified Mdh2-6×His added directly before grid preparation; 18.9 Å; 25 mM HEPES pH 7.5, 150 mM NaCl, 5 mM DTT.

As a reminder, the stoichiometry N is a count of units in the complex or per binding partner. For “Gid12-Chelator-GID^SR4 (Gid12-Gid7-Gid4-Gid5-Gid1-Gid8-Gid2-Gid9), Twin-Strep at the C-terminus of Gid8, Q12027 1-708; P53076 1-958; Q12508 1-421; P38263 1-362; P40547 1-921; P25569 1-745; P40208 1-455; P40492 1-516”, in series [1], the stoichiometry N came to 3. For the molecule “PHSVTP-Fbp1 (Fbp1 with its N-terminus exchanged to Mdh2 degron) (from UniProt P09201 1-348) (enzyme)”, the stoichiometry N in series [2] was 4. Regarding “Chelator-GID^SR4 (Gid7-Gid4-Gid5-Gid1-Gid8-Gid2-Gid9), Twin-Strep at the C-terminus of Gid8, P53076 1-958; Q12508 1-421; P38263 1-362; P40547 1-921; P25569 1-745; P40208 1-455; P40492 1-516”, in series [3], the stoichiometry N is 3.

B1: Gid12-9×cMYC (natural protein, S. cerevisiae (endogenous in BY4741), UniProt Q12027 1-708, looked up)
chain: MATGRIQFAVSTPCNTKGKPSGYRLFEFKNDRLALVPSERGCTKVDVNANIQAFCYLRPNGRDTSISPDATHILDSCDYMVLAKSNGFIEIISNYQYKIKNGLRLAPSYILRCTPEDFESNFFSDYMIAGLEYSQGLLYCCMCSGRIYVFVMNLPTDYIQYKNMYNPMFPDCFFKVHHDNNTTHSSEEEKLFEGSTRYTGRSCSKHICYFLLPIEPSHLRSSPVVSSFCNMYQGLPIYRPSMYLHIERGISTFHINPLDRFCFMTVSPRSPLFIRKIILPLTYVTFLSTFISLKNSIQGDTCGEILSWDNVAQQNGFGSLFSWISNKFTFDTDIINSTIWDDIVKYSGTGMLDSGIVWKQRQGHAKDDIYELFHTQDMLGSSRRNSSFSTASSEPRPLSRRRRESFQALTRDAFRERMDVPCSTKWELDSFIRGLRRNTFMVDFEIVEKISHRNGNDGVNEDDNTTDESDETMTSFLTDNYKKMDIVCIDHFVTLSAFRPRYYDEPIIKIDSLSNKNGSENGTNEEEWAESQMKVDGQVIDDETAQFKQALGNLCSFKKLFMLDDSLCFILDTHGVLLINRFEIKNTKNLLRNSKDTIRIIPHDFGLINDTIVIINDIDVGTDNVCALTFHLVVTSMAGEITVLKGEFFKNCRLGRIKLCDSLKLNRKDRFVDKLALIDYDGLNAQKRRLDYDEKDLYTFIVKKVKRD
notes: Gid12 (Ipf1, YDL176W), S. cerevisiae, tagged at the endogenous locus; The strain name is written GID12-9×cMYC; source: endogenous locus, BY4741 GID12-9×cMYC::kanMX4, 3×HA-GID4 yeast, in lysate
Take B1: in series [4], the “ratio of Gid12 to Gid4 in the Gid4 immunoprecipitate (iBAQ), glycolytic growth conditions” value was ~0.2 Gid12:Gid4 and the “stoichiometry of Gid12 to Gid4 in the Gid4 immunoprecipitate (iBAQ), gluconeogenic growth conditions” value is ~1 Gid12:Gid4.

B2: Mdh2-6×His (enzyme, S. cerevisiae, UniProt P22133 2-377, looked up)
chain: PHSVTPSIEQDSLKIAILGAAGGIGQSLSLLLKAQLQYQLKESNRSVTHIHLALYDVNQEAINGVTADLSHIDTPISVSSHSPAGGIENCLHNASIVVIPAGVPRKPGMTRDDLFNVNAGIISQLGDSIAECCDLSKVFVLVISNPVNSLVPVMVSNILKNHPQSRNSGIERRIMGVTKLDIVRASTFLREINIESGLTPRVNSMPDVPVIGGHSGETIIPLFSQSNFLSRLNEDQLKYLIHRVQYGGDEVVKAKNGKGSATLSMAHAGYKCVVQFVSLLLGNIEQIHGTYYVPLKDANNFPIAPGADQLLPLVDGADYFAIPLTITTKGVSYVDYDIVNRMNDMERNQMLPICVSQLKKNIDKGLEFVASRSASS
notes: Mdh2 (malate dehydrogenase), S. cerevisiae; The name is written Mdh2-6×His; also called malate dehydrogenase; source: purified
B2: the “stoichiometry N” value in series [5] turned out to be 2.
